Reference: US20220048967A1 (published 2022)
Numbered stars: 1 amine (or outer) side, 2 acyl side, 3 side chain; on linkers, the order of the positions; unused ones are H or OH. Square brackets hold non-standard residues; d marks the D form. Side chains are listed from the residue outwards. Ends that are not written are not given here. * marks the point of attachment. C20 diacid = O=C(O)CCCCCCCCCCCCCCCCCCC(=O)*; C18 diacid = O=C(O)CCCCCCCCCCCCCCCCC(=O)*; αMePhe(2-F) = C[C@](N)(Cc1ccccc1F)C(=O)O; γGlu = O=C(O)[C@H](CCC(=O)[*:2])N[*:1]; αMeF = C[C@](N)(Cc1ccccc1)C(=O)O; αMeP = C[C@@]1(C(=O)O)CCCN1; AEEA = NCCOCCOCC(=O)O; Aib = CC(C)(N)C(=O)O

T1: human gastric inhibitory peptide receptor (GIPR) (human, UniProt P48546 22-466)
T1 sequence (looked up): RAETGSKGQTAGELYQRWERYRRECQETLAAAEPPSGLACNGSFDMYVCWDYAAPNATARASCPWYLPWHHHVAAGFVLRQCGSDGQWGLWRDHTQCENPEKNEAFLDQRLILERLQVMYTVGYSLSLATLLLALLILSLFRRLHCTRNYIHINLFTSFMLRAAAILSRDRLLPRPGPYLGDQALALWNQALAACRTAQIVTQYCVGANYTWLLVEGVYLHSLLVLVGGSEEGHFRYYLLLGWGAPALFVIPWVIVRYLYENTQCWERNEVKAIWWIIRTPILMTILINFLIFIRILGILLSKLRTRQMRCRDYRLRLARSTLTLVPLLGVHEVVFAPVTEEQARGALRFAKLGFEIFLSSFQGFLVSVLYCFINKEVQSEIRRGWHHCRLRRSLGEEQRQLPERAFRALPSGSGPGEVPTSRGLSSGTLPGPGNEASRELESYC


Assays:
[1] = target: human GLP-1 receptor (GLP-1R) (human, UniProt P43220 24-463); assay: cell-based or functional assay
[2] = target: T1, human gastric inhibitory peptide …; assay: cell-based or functional assay

Binder | hGLP1R cAMP EC50 ratio [1] | hGLP1R cAMP Rel EC50 [1] | hGIPR cAMP EC50 ratio [2] | hGIPR cAMP Rel EC50 [2]
Y[αMeP]EGTFTSDYSILLDRK([AEEA-AEEA-γGlu-C20 diacid])AQQAFIEYLIEGGPSSGAPPPS-NH2 (N-terminus assumed; SMILES CC[C@H](C)[C@H](NC(=O)[C@H](CC(C)C)NC(=O)[C@H](Cc1ccc(O)cc1)NC(=O)[C@H](CCC(=O)O)NC(=O)[C@@H](NC(=O)[C@H](Cc1ccccc1)NC(=O)[C@H](C)NC(=O)[C@H](CCC(N)=O)NC(=O)[C@H](CCC(N)=O)NC(=O)[C@H](C)NC(=O)[C@H](CCCCNC(=O)COCCOCCNC(=O)COCCOCCNC(=O)CC[C@H](NC(=O)CCCCCCCCCCCCCCCCCCC(=O)O)C(=O)O)NC(=O)[C@H](CCCNC(=N)N)NC(=O)[C@H](CC(=O)O)NC(=O)[C@H](CC(C)C)NC(=O)[C@H](CC(C)C)NC(=O)[C@@H](NC(=O)[C@H](CO)NC(=O)[C@H](Cc1ccc(O)cc1)NC(=O)[C@H](CC(=O)O)NC(=O)[C@H](CO)NC(=O)[C@@H](NC(=O)[C@H](Cc1ccccc1)NC(=O)[C@@H](NC(=O)CNC(=O)[C@H](CCC(=O)O)NC(=O)[C@]1(C)CCCN1C(=O)[C@@H](N)Cc1ccc(O)cc1)[C@@H](C)O)[C@@H](C)O)[C@@H](C)CC)[C@@H](C)CC)C(=O)N[C@@H](CCC(=O)O)C(=O)NCC(=O)NCC(=O)N1CCC[C@H]1C(=O)N[C@@H](CO)C(=O)N[C@@H](CO)C(=O)NCC(=O)N[C@@H](C)C(=O)N1CCC[C@H]1C(=O)N1CCC[C@H]1C(=O)N1CCC[C@H]1C(=O)N[C@@H](CO)C(N)=O) [Example 195] | 0.602 | 96.6 pM | 0.936 | 193 pM
Y[αMeP]EGTFTSDYSILLDEK([AEEA-AEEA-γGlu-C20 diacid])AQQAFIEYLIEGGPSSGAPPPS-NH2 (N-terminus assumed; SMILES CC[C@H](C)[C@H](NC(=O)[C@H](CC(C)C)NC(=O)[C@H](Cc1ccc(O)cc1)NC(=O)[C@H](CCC(=O)O)NC(=O)[C@@H](NC(=O)[C@H](Cc1ccccc1)NC(=O)[C@H](C)NC(=O)[C@H](CCC(N)=O)NC(=O)[C@H](CCC(N)=O)NC(=O)[C@H](C)NC(=O)[C@H](CCCCNC(=O)COCCOCCNC(=O)COCCOCCNC(=O)CC[C@H](NC(=O)CCCCCCCCCCCCCCCCCCC(=O)O)C(=O)O)NC(=O)[C@H](CCC(=O)O)NC(=O)[C@H](CC(=O)O)NC(=O)[C@H](CC(C)C)NC(=O)[C@H](CC(C)C)NC(=O)[C@@H](NC(=O)[C@H](CO)NC(=O)[C@H](Cc1ccc(O)cc1)NC(=O)[C@H](CC(=O)O)NC(=O)[C@H](CO)NC(=O)[C@@H](NC(=O)[C@H](Cc1ccccc1)NC(=O)[C@@H](NC(=O)CNC(=O)[C@H](CCC(=O)O)NC(=O)[C@]1(C)CCCN1C(=O)[C@@H](N)Cc1ccc(O)cc1)[C@@H](C)O)[C@@H](C)O)[C@@H](C)CC)[C@@H](C)CC)C(=O)N[C@@H](CCC(=O)O)C(=O)NCC(=O)NCC(=O)N1CCC[C@H]1C(=O)N[C@@H](CO)C(=O)N[C@@H](CO)C(=O)NCC(=O)N[C@@H](C)C(=O)N1CCC[C@H]1C(=O)N1CCC[C@H]1C(=O)N1CCC[C@H]1C(=O)N[C@@H](CO)C(N)=O) [Example 193] | 0.359 | 162 pM | 0.538 | 336 pM
YXEGTXTSDXSIXLDEKAQXEFIXYLIEGGPSSGAPPPS (Y-Aib-EGT-αMeF(2F)-TSD-3Pal-SI-αMeF-LDEK((2-[2-(2-Amino-ethoxy)-ethoxy]-acetyl)2-(γ-Glu)-CO-(CH2)18-CO2H)AQ-Aib-EFI-(D-Glu)-YLIEGGPSSGAPPPS-NH2) [Example 181] | 0.718 | 59.2 pM | 4.1 | 45.9 pM
YXEGTXTSDLSIXLDEKAQXEFIXYLIEGGPSSGAPPPS (Y-Aib-EGT-αMeF(2F)-TSDLSI-αMeF-LDEK((2-[2-(2-Amino-ethoxy)-ethoxy]-acetyl)2-(γ-Glu)-CO-(CH2)18-CO2H)AQ-Aib-EFI-(D-Glu)-YLIEGGPSSGAPPPS-NH2) [Example 183] | 0.843 | 55.1 pM | 3.1 | 61.5 pM
HXEGTXTSDXSIXLDEKAQXEFIXYLIEGGPSSGAPPPS (H-Aib-EGT-αMeF(2F)-TSD-3Pal-SI-αMeF-LDEK((2-[2-(2-Amino-ethoxy)-ethoxy]-acetyl)2-(γ-Glu)-CO-(CH2)18-CO2H)AQ-Aib-EFI-(D-Glu)-YLIEGGPSSGAPPPS-NH2) [Example 190] | 2.2 | 24.1 pM | 0.158 | 738 pM
YXEGTXTSDASIXLDEKAQXEFIXYLIEGGPSSGAPPPS (Y-Aib-EGT-αMeF(2F)-TSDASI-αMeF-LDEK((2-[2-(2-Amino-ethoxy)-ethoxy]-acetyl)2-(γ-Glu)-CO-(CH2)18-CO2H)AQ-Aib-EFI-(D-Glu)-YLIEGGPSSGAPPPS-NH2) [Example 192] | 1.73 | 28.9 pM | 2.83 | 61.5 pM
YXEGTXTSDXSIXLDEKAQXEFIXYLIEGGPSSGAPPPS (Y-Aib-EGT-αMeF(2F)-TSD-4Pal-SI-αMeF-LDEK((2-[2-(2-Amino-ethoxy)-ethoxy]-acetyl)2-(γ-Glu)-CO-(CH2)18-CO2H)AQ-Aib-EFI-(D-Glu)-YLIEGGPSSGAPPPS-NH2) [Example 182] | 0.873 | 46.3 pM | 4.37 | 44.2 pM
YXEGTXTSDXSIXLDEKAQXEFIXYLIEGGPSSGAPPPS (Y-Aib-EGT-αMeF(2F)-TSD-(D-His)-SI-αMeF-LDEK((2-[2-(2-Amino-ethoxy)-ethoxy]-acetyl)2-(γ-Glu)-CO-(CH2)18-CO2H)AQ-Aib-EFI-(D-Glu)-YLIEGGPSSGAPPPS-NH2) [Example 185] | 0.00739 | 7160 pM | 0.185 | 632 pM
YXEGTXTSDVSIXLDEKAQXEFIXYLIEGGPSSGAPPPS (Y-Aib-EGT-αMeF(2F)-TSDVSI-αMeF-LDEK((2-[2-(2-Amino-ethoxy)-ethoxy]-acetyl)2-(γ-Glu)-CO-(CH2)18-CO2H)AQ-Aib-EFI-(D-Glu)-YLIEGGPSSGAPPPS-NH2) [Example 191] | 1.6 | 35.6 pM | 2.53 | 64.5 pM
YXEGTXTSDXSIXLDEKAQXEFIXYLIEGGPSSGAPPPS (Y-Aib-EGT-αMeF(2F)-TSD-(D-Tyr)-SI-αMeF-LDEK((2-[2-(2-Amino-ethoxy)-ethoxy]-acetyl)2-(γ-Glu)-CO-(CH2)18-CO2H)AQ-Aib-EFI-(D-Glu)-YLIEGGPSSGAPPPS-NH2) [Example 184] | 0.135 | 392 pM | 2.45 | 47.7 pM
YXEGTXTSDXSIXLDEKAQXEFIXYLIEGGPSSGAPPPS (Y-Aib-EGT-αMeF(2F)-TSD-4Pal-SI-αMeF-LDEK((2-[2-(2-Amino-ethoxy)-ethoxy]-acetyl)2-(γ-Glu)-CO-(CH2)18-CO2H)AQ-Aib-EFI-Aib-YLIEGGPSSGAPPPS-NH2) [Example 189] | 0.668 | 60.8 pM | 2.41 | 77.5 pM
YXEGTXTSDXSIXLDEKAQXEFIXYLIEGGPSSGAPPPS (Y-Aib-EGT-αMeF(2F)-TSD-3Pal-SI-αMeF-LDEK((2-[2-(2-Amino-ethoxy)-ethoxy]-acetyl)2-(γ-Glu)-CO-(CH2)18-CO2H)AQ-Aib-EFI-Aib-YLIEGGPSSGAPPPS-NH2) [Example 188] | 0.408 | 130 pM | 0.969 | 121 pM
YXEGTXTSDQSIXLDEKAQXEFIXYLIEGGPSSGAPPPS (Y-Aib-EGT-αMeF(2F)-TSDQSI-αMeF-LDEK((2-[2-(2-Amino-ethoxy)-ethoxy]-acetyl)2-(γ-Glu)-CO-(CH2)18-CO2H)AQ-Aib-EFI-(D-Glu)-YLIEGGPSSGAPPPS-NH2) [Example 187] | 0.702 | 57.7 pM | 4.61 | 37.1 pM
Y[Aib]EGT[αMePhe(2-F)]TSDHSI[αMeF]LDEK([AEEA-AEEA-γGlu-C18 diacid])AQ[Aib]HFI[dE]YLIEGG-NH2 (N-terminus assumed; SMILES CC[C@H](C)[C@H](NC(=O)[C@H](CC(C)C)NC(=O)[C@H](Cc1ccc(O)cc1)NC(=O)[C@@H](CCC(=O)O)NC(=O)[C@@H](NC(=O)[C@H](Cc1ccccc1)NC(=O)[C@H](Cc1c[nH]cn1)NC(=O)C(C)(C)NC(=O)[C@H](CCC(N)=O)NC(=O)[C@H](C)NC(=O)[C@H](CCCCNC(=O)COCCOCCNC(=O)COCCOCCNC(=O)CC[C@H](NC(=O)CCCCCCCCCCCCCCCCC(=O)O)C(=O)O)NC(=O)[C@H](CCC(=O)O)NC(=O)[C@H](CC(=O)O)NC(=O)[C@H](CC(C)C)NC(=O)[C@](C)(Cc1ccccc1)NC(=O)[C@@H](NC(=O)[C@H](CO)NC(=O)[C@H](Cc1c[nH]cn1)NC(=O)[C@H](CC(=O)O)NC(=O)[C@H](CO)NC(=O)[C@@H](NC(=O)[C@](C)(Cc1ccccc1F)NC(=O)[C@@H](NC(=O)CNC(=O)[C@H](CCC(=O)O)NC(=O)C(C)(C)NC(=O)[C@@H](N)Cc1ccc(O)cc1)[C@@H](C)O)[C@@H](C)O)[C@@H](C)CC)[C@@H](C)CC)C(=O)N[C@@H](CCC(=O)O)C(=O)NCC(=O)NCC(N)=O) [Example 180] | 0.0212 | 2160 pM | 0.133 | 790 pM
Y[αMeP]EGTFTSDYSILLDEK([AEEA-AEEA-γGlu-C20 diacid])AQHAFIEYLIEGGPSSGAPPPS-NH2 (N-terminus assumed; SMILES CC[C@H](C)[C@H](NC(=O)[C@H](CC(C)C)NC(=O)[C@H](Cc1ccc(O)cc1)NC(=O)[C@H](CCC(=O)O)NC(=O)[C@@H](NC(=O)[C@H](Cc1ccccc1)NC(=O)[C@H](C)NC(=O)[C@H](Cc1c[nH]cn1)NC(=O)[C@H](CCC(N)=O)NC(=O)[C@H](C)NC(=O)[C@H](CCCCNC(=O)COCCOCCNC(=O)COCCOCCNC(=O)CC[C@H](NC(=O)CCCCCCCCCCCCCCCCCCC(=O)O)C(=O)O)NC(=O)[C@H](CCC(=O)O)NC(=O)[C@H](CC(=O)O)NC(=O)[C@H](CC(C)C)NC(=O)[C@H](CC(C)C)NC(=O)[C@@H](NC(=O)[C@H](CO)NC(=O)[C@H](Cc1ccc(O)cc1)NC(=O)[C@H](CC(=O)O)NC(=O)[C@H](CO)NC(=O)[C@@H](NC(=O)[C@H](Cc1ccccc1)NC(=O)[C@@H](NC(=O)CNC(=O)[C@H](CCC(=O)O)NC(=O)[C@]1(C)CCCN1C(=O)[C@@H](N)Cc1ccc(O)cc1)[C@@H](C)O)[C@@H](C)O)[C@@H](C)CC)[C@@H](C)CC)C(=O)N[C@@H](CCC(=O)O)C(=O)NCC(=O)NCC(=O)N1CCC[C@H]1C(=O)N[C@@H](CO)C(=O)N[C@@H](CO)C(=O)NCC(=O)N[C@@H](C)C(=O)N1CCC[C@H]1C(=O)N1CCC[C@H]1C(=O)N1CCC[C@H]1C(=O)N[C@@H](CO)C(N)=O) [Example 194] | 0.205 | 284 pM | 0.427 | 423 pM
